Test results from patent publication US11541107B2, “Peptides and T cells for use in immunotherapeutic treatment of various cancers” (Immatics Biotechnologies GmbH, priority 2015, dated 2023).

What follows are substances tested against HLA-A*02 (Homo sapiens, UniProt P04439, D140Y/D185E/D98H/E176V/E277Q/G131W/G231S/I119V/I121R/I166T/I218V/L300P/N151K/N90K/P208A/P217A/Q86G/Q94H/R138H/R169H) (assay: MHC binding assay, UV-ligand exchange with beta2m ELISA, HLA-A*02). Conditions: binding to HLA-A*02 ranged by peptide exchange yield (UV-ligand exchange, beta2m ELISA).
Excerpt: Candidate peptides for T cell based therapies according to the present invention were further tested for their MHC binding capacity (affinity). The individual peptide-MHC complexes were produced by UV-ligand exchange, where a UV-sensitive peptide is cleaved upon UV-irradiation, and exchanged with the peptide of interest as analyzed. Only peptide candidates that can effectively bind and stabilize the peptide-receptive MHC molecules prevent dissociation of the MHC complexes. To determine the yield of the exchange reaction, an ELISA was performed based on the detection of the light chain (ß2 m) of stabilized MHC complexes. The assay was performed as generally described in Rodenko et al. (Rodenko et al., 2006).
96 well MAXISorp plates (NUNC) were coated over night with 2 ug/ml streptavidin in PBS at room temperature, washed 4× and blocked for 1 h at 37° C. in 2% BSA containing blocking buffer. […] Peptide-MHC monomers of the UV-exchange reaction were diluted 100 fold in blocking buffer. Samples were incubated for 1 h at 37° C., washed four times, incubated with 2 ug/ml HRP conjugated anti-β2 m for 1h at 37° C., washed again and detected with TMB solution that is stopped with […]. Absorption was measured at 450 nm. Candidate peptides that show a high exchange yield (preferably higher than 50%, most preferred higher than 75%) are generally preferred for a generation and production of antibodies or fragments thereof, and/or T cell receptors or fragments thereof, as they show sufficient avidity to the MHC molecules and prevent dissociation of the MHC complexes.

Peptide exchange | Substance
+++ (50%-75% = +++) | 69 (GIYDGILHSI; listed as Homo sapiens) [compound 69]
+++ (50%-75% = +++) | 88 (ILLNTEDLASL; listed as Homo sapiens) [compound 88]
+++ (50%-75% = +++) | 53 (SLLSHVIVA; listed as Homo sapiens) [compound 53]
+ (<20% = +) | 23 (AQTVVVIKA; listed as Homo sapiens) [compound 23]
++++ (>=75% = ++++) | 79 (SLVPLQILL; listed as Homo sapiens) [compound 79]
+++ (50%-75% = +++) | 80 (TLDEYLTYL; listed as Homo sapiens) [compound 80]
++ (20%-49% = ++) | 81 (VLFLGKLLV; listed as Homo sapiens) [compound 81]
+++ (50%-75% = +++) | 27 (KVFGDLDQV; listed as Homo sapiens) [compound 27]
+++ (50%-75% = +++) | 24 (FLWNGEDSAL; listed as Homo sapiens) [compound 24]
++ (20%-49% = ++) | 339 (VLGPGPPPL; listed as Homo sapiens) [compound 339]
++ (20%-49% = ++) | 16 (HLYNNEEQV; listed as Homo sapiens) [compound 16]
++ (20%-49% = ++) | 56 (KILDLTRVL; listed as Homo sapiens) [compound 56]
+++ (50%-75% = +++) | 29 (TLCNKTFTA; listed as Homo sapiens) [compound 29]
+++ (50%-75% = +++) | 83 (ELLEYLPQL; listed as Homo sapiens) [compound 83]
+++ (50%-75% = +++) | 45 (VLGPTPELV; listed as Homo sapiens) [compound 45]
+++ (50%-75% = +++) | 38 (KMQEDLVTL; listed as Homo sapiens) [compound 38]
+++ (50%-75% = +++) | 66 (FITDFYTTV; listed as Homo sapiens) [compound 66]
++ (20%-49% = ++) | 82 (VLLRVLIL; listed as Homo sapiens) [compound 82]
+ (<20% = +) | 63 (TLSSERDFAL; listed as Homo sapiens) [compound 63]
+++ (50%-75% = +++) | 46 (SLAKHGIVAL; listed as Homo sapiens) [compound 46]
+++ (50%-75% = +++) | 6 (FLDPAQRDL; listed as Homo sapiens) [compound 6]
+++ (50%-75% = +++) | 41 (FVLPLVVTL; listed as Homo sapiens) [compound 41]

Peptide exchange | Substance
+++ (50%-75% = +++) | 5 (SLFGQEVYC; listed as Homo sapiens) [compound 5]
+++ (50%-75% = +++) | 4 (ELAEIVFKV; listed as Homo sapiens) [compound 4]
+++ (50%-75% = +++) | 59 (ALTKILAEL; listed as Homo sapiens) [compound 59]
+++ (50%-75% = +++) | 333 (GTFLEGVAK; listed as Homo sapiens) [compound 333]
++++ (>=75% = ++++) | 21 (SLYHRVLLY; listed as Homo sapiens) [compound 21]
++ (20%-49% = ++) | 325 (RLLPKVQEV; listed as Homo sapiens) [compound 325]
+++ (50%-75% = +++) | 52 (ELLSSIFFL; listed as Homo sapiens) [compound 52]
+++ (50%-75% = +++) | 337 (KVLGKIEKV; listed as Homo sapiens) [compound 337]
+++ (50%-75% = +++) | 85 (STLDGSLHAV; listed as Homo sapiens) [compound 85]
++ (20%-49% = ++) | 57 (VLISSTVRL; listed as Homo sapiens) [compound 57]
+++ (50%-75% = +++) | 3 (TLLGKQVTL; listed as Homo sapiens) [compound 3]
++ (20%-49% = ++) | 60 (FLIDTSASM; listed as Homo sapiens) [compound 60]
++ (20%-49% = ++) | 329 (FAWEPSFRDQV; listed as Homo sapiens) [compound 329]
++ (20%-49% = ++) | 67 (GVIETVTSL; listed as Homo sapiens) [compound 67]
++ (20%-49% = ++) | 335 (VLLAAGPSAA; listed as Homo sapiens) [compound 335]
++ (20%-49% = ++) | 74 (ILDETLENV; listed as Homo sapiens) [compound 74]
+++ (50%-75% = +++) | 42 (VLSPFILTL; listed as Homo sapiens) [compound 42]
+++ (50%-75% = +++) | 323 (ILSVVNSQL; listed as Homo sapiens) [compound 323]
++ (20%-49% = ++) | 11 (GVLKVFLENV; listed as Homo sapiens) [compound 11]
+++ (50%-75% = +++) | 39 (ALMAVVSGL; listed as Homo sapiens) [compound 39]
+++ (50%-75% = +++) | 62 (SLFNQEVQI; listed as Homo sapiens) [compound 62]

More lines, now with the values behind:

Substance | Peptide exchange
338 (LLYDGKLSSA; listed as Homo sapiens) [compound 338] | ++ (20%-49% = ++)
334 (GRADALRVL; listed as Homo sapiens) [compound 334] | +++ (50%-75% = +++)
40 (SLLALPQDLQA; listed as Homo sapiens) [compound 40] | +++ (50%-75% = +++)
10 (KTLDVFNIIL; listed as Homo sapiens) [compound 10] | ++ (20%-49% = ++)
93 (SLLTQPIFL; listed as Homo sapiens) [compound 93] | +++ (50%-75% = +++)
89 (YLVAHNLLL; listed as Homo sapiens) [compound 89] | +++ (50%-75% = +++)
64 (GLSSSSYEL; listed as Homo sapiens) [compound 64] | ++ (20%-49% = ++)
70 (GLFSQHFNL; listed as Homo sapiens) [compound 70] | +++ (50%-75% = +++)
84 (FLEEEITRV; listed as Homo sapiens) [compound 84] | +++ (50%-75% = +++)
324 (AIFDFCPSV; listed as Homo sapiens) [compound 324] | ++++ (>=75% = ++++)
32 (ILADEAFFSV; listed as Homo sapiens) [compound 32] | +++ (50%-75% = +++)
331 (AIWKELISL; listed as Homo sapiens) [compound 331] | +++ (50%-75% = +++)
91 (SSLEPQIQPV; listed as Homo sapiens) [compound 91] | + (<20% = +)
22 (MLSDLTLQL; listed as Homo sapiens) [compound 22] | ++++ (>=75% = ++++)
51 (LLLDGDFTL; listed as Homo sapiens) [compound 51] | +++ (50%-75% = +++)
327 (SIGDIFLKY; listed as Homo sapiens) [compound 327] | +++ (50%-75% = +++)
321 (SLWFKPEEL; listed as Homo sapiens) [compound 321] | +++ (50%-75% = +++)
26 (KVDGVVIQL; listed as Homo sapiens) [compound 26] | +++ (50%-75% = +++)
44 (GLLWQIIKV; listed as Homo sapiens) [compound 44] | ++ (20%-49% = ++)
50 (EYALLYHTL; listed as Homo sapiens) [compound 50] | ++ (20%-49% = ++)
58 (ALDDSLTSL; listed as Homo sapiens) [compound 58] | ++ (20%-49% = ++)
8 (KLGPFLLNA; listed as Homo sapiens) [compound 8] | +++ (50%-75% = +++)
48 (TLDHKPVTV; listed as Homo sapiens) [compound 48] | ++ (20%-49% = ++)
49 (LLDESKLTL; listed as Homo sapiens) [compound 49] | +++ (50%-75% = +++)
33 (LLLPLLPPLSPSLG; listed as Homo sapiens) [compound 33] | +++ (50%-75% = +++)
13 (VLRDNIQGI; listed as Homo sapiens) [compound 13] | +++ (50%-75% = +++)
19 (TLLPTVLTL; listed as Homo sapiens) [compound 19] | +++ (50%-75% = +++)
72 (GMIGFQVLL; listed as Homo sapiens) [compound 72] | +++ (50%-75% = +++)
36 (KLYGIEIEV; listed as Homo sapiens) [compound 36] | ++++ (>=75% = ++++)
28 (TLYSMDLMKV; listed as Homo sapiens) [compound 28] | +++ (50%-75% = +++)
